Measurements taken from patent US8673307.

Columns and labels:
[1] = molecular target: YU2-gp120 (HIV-1 (YU2)) (UniProt P35961); experiment: competition ELISA on gp120; unlabeled b12 against biotin labeled b12 (self-inhibition)
[2] = molecular target: YU2-gp140 trimer (artificially trimerized gp140 protein) (HIV-1 (YU2)) (UniProt P35961); experiment: SPR (Biacore T100), antibody immobilized on CM5 chip, gp140 trimer injected, 1:1 model

b12 (antibody) gave an IC50 [1] of 5 µg/mL and a Kd [2] of 12 nM.
